The values that follow come from article doi:10.1101/2020.08.24.264606 (bioRxiv, 2020).

In the experiment the target is CIP2A(1-560)-V5 (human, UniProt Q8TCG1-1 1-560). Kind of experiment: pull-down.

B1: GST-NOCIVA (CIP2A 1-545 + 13 aa peptide) (natural protein)
chain: not shown
For the molecule B1, the binding result is listed as “binds”.
